Experimental data reported in US20220315554A1, “COMPOUNDS COMPRISING A […] LIGAND AND USE THEREOF” (priority 2019, published 2022).
Bridge positions count the residues as written; N and C are the ends. * marks the point of attachment. tMeBn(DOTA-AET) = Cys-Cys bridge (thioethers) carrying DOTA-AET; tMeBn(DOTA-PP) = Cys-Cys bridge (thioethers) carrying DOTA-PP; Hexanoyl = CCCCCC(=O)*

T1: AR (h) (human (printed (h))), P10275
T1 chain: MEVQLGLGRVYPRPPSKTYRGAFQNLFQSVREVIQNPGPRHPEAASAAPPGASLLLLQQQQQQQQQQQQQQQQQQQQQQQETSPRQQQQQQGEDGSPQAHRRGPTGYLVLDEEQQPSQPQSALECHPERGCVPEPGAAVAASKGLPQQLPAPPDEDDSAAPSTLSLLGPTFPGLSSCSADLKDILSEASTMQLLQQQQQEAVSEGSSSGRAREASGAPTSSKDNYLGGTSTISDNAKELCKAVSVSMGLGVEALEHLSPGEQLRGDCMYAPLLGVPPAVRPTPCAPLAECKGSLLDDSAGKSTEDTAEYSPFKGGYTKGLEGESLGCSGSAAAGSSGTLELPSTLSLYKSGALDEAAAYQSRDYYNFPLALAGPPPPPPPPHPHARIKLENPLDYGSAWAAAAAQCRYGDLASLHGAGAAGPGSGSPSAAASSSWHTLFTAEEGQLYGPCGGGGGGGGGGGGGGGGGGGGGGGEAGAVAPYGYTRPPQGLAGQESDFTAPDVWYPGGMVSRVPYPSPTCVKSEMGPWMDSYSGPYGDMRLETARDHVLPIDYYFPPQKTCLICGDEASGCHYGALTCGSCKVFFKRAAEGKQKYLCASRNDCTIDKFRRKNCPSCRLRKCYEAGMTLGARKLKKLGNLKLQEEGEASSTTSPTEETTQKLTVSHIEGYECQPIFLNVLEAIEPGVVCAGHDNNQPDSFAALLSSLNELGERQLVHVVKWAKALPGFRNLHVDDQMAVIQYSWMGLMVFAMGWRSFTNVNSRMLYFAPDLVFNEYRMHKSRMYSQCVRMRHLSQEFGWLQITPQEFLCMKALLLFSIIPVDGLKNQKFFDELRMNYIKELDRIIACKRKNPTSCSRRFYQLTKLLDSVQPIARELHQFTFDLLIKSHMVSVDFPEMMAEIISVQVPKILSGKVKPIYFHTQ

T2: D2S (h) (human (printed (h))), P14416
T2 chain: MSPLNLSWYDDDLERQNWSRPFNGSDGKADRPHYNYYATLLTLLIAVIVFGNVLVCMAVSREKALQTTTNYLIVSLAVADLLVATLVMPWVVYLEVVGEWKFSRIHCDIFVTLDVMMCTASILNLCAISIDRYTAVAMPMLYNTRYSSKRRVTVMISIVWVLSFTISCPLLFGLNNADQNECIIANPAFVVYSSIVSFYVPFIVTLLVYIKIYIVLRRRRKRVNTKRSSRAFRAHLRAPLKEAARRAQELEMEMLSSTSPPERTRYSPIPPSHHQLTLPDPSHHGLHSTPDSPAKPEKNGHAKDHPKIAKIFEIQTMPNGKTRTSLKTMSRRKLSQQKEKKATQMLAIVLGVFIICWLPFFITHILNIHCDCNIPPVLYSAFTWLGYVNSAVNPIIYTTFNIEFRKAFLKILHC

T3: ETA (h) (human (printed (h))), P25101
T3 chain: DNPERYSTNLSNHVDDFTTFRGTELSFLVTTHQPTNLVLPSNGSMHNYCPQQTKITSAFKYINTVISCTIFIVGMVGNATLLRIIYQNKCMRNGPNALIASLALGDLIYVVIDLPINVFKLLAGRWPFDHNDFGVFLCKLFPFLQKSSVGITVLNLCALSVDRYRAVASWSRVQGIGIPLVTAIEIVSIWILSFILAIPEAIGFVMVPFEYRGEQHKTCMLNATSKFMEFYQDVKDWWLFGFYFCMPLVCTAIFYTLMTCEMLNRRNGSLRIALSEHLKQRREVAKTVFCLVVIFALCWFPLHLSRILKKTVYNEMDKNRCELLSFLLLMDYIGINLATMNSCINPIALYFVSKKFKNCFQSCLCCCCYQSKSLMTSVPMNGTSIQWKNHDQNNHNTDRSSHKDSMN

T4: Potassium Channel hERG (human) (human), Q12809
T4 chain: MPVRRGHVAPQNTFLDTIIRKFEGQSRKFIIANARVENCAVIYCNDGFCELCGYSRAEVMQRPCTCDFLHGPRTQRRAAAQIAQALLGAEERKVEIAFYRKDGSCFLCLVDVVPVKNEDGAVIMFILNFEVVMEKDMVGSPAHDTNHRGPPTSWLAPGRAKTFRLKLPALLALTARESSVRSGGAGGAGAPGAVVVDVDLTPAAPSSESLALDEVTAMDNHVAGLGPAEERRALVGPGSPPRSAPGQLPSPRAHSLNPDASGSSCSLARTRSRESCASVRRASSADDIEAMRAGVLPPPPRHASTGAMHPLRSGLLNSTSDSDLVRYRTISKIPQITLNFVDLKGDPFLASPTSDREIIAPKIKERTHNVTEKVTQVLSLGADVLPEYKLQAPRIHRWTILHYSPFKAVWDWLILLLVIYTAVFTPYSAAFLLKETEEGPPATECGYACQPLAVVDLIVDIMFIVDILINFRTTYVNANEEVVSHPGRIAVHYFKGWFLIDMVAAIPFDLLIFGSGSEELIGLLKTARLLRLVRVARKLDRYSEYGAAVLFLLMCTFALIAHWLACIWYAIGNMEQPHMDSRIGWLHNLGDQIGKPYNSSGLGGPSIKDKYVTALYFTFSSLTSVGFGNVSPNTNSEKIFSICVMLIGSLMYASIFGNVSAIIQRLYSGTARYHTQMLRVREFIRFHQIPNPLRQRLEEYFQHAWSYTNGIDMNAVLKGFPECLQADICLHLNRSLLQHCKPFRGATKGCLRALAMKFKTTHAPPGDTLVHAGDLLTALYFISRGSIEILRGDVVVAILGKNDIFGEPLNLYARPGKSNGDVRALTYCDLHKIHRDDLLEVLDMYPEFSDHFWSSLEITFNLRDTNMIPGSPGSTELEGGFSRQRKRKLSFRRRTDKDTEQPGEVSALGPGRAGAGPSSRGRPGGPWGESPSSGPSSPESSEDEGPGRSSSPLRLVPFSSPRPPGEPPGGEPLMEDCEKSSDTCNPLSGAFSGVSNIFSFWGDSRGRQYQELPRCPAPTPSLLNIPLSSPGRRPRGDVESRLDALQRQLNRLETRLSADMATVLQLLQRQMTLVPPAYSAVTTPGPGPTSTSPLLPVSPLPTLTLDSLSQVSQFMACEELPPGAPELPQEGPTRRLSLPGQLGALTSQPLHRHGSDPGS

B1: Hex-[Cys(tMeBn(DOTA-AET))-Pro-Pro-Thr-Gln-Phe-Cys]-OH (3BP-3554) (peptide)
peptide: Hexanoyl-CPPTQFC-OH
modifications: linker 1-7 via tMeBn(DOTA-AET)
B2: Hex-[Cys(tMeBn(DOTA-PP))-Pro-Pro-Thr-Gln-Phe-Cys]-Asp-NH2 (3BP-3407) (peptide)
peptide: Hexanoyl-CPPTQFCD-NH2
modifications: linker 1-7 via tMeBn(DOTA-PP)

Experiments:
Conditions in all cases: remark: other sources report otherwise
[1] = target: 5-HT transporter (h) (human (printed (h))), P31645; test: radioligand displacement, 10 uM compound
[2] = target: T1, AR (h) (human (printed (h))), P10275; test: radioligand displacement, 10 uM compound
[3] = target: T2, D2S (h) (human (printed (h))), P14416; test: radioligand displacement, 10 uM compound
[4] = target: T3, ETA (h) (human (printed (h))), P25101; test: radioligand displacement, 10 uM compound
[5] = target: T4, Potassium Channel hERG (human) (human), …; test: [3H] Dofetilide displacement, 10 uM compound

Row | Binder | % Inhibition of Specific Binding [1] | % Inhibition of Specific Binding [2] | % Inhibition of Specific Binding [3] | % Inhibition of Specific Binding [4] | % Inhibition of Specific Binding [5]
1 | B1 | -8% | -5% | -7% | 6% | 6%
2 | B2 | -3% | 3% | 15% | -18% | 2%
